# From patent US12551525B2, “Collagen peptide-based medicament compositions and devices and methods of production and use thereof” (SUSTAIN HOLDINGS, LLC, priority 2017, dated 2026)
# System: corneal epithelium in wounded mouse eyes
# Assay: In vivo healing of mouse corneal epithelium (corneal wound model, fluorescein staining)
# Set-up: species or system mouse (C57BL/6)
# Conditions: positive control, 100 ng/ml; 16 hours post-wounding; compared to Cmpd 3 and Cmpd 10
# Method: The FIG. 1s a series of photomicrographs depicting the healing of a wound in the cornea of mouse eye, at time 0 and 16 hours post-wounding, upon treatment with certain compositions of the present invention. Wounds were introduced into the corneas of mice, and the mice treated immediately after wounding with vehicle (PBS), with 100 ng/ml of epidermal growth factor (EGF), or with 25 nM (about 3 mg/kg) of a (Pro-Pro-Gly)7 CMP of the invention (SEQ ID NO:1) (“Cmpd 3”), or of a (Hyp-Pro-Gly)7-SubP CMP-TC of the invention (SEQ ID NO:390) (“Cmpd 10”).
# To examine the possible therapeutic effects of CMPs and CMP-TC conjugates of the invention, studies were designed to test certain CMPs and CMP-TC conjugates in an in vivo setting—the healing of the corneal epithelium in wounded mouse eyes. […] Wound size at various time points over 48 hours was examined by fluorescein staining (see Carlson et al., id.), and documented via fluorescent photomicrography, and quantified using Image J software (see Rush, J. S. et al., Investig. Ophthalmol. Visual Sci. 57 (14): 5864-5871 (2016); Rush, J. S. et al., Investig. Ophthalmol. Visual Sci. 55 (8): 4691-4699 (2014)). […]
molecule,measurement,value
"epidermal growth factor (protein, UniProt P01133 23-1207, looked up, Pro-epidermal growth factor, positive control growth factor) Pro-epidermal growth factor: PQHWSCPEGTLAGNGNSTCVGPAPFLIFSHGNSIFRIDTEGTNYEQLVVDAGVSVIMDFHYNEKRIYWVDLERQLLQRVFLNGSRQERVCNIEKNVSGMAINWINEEVIWSNQQEGIITVTDMKGNNSHILLSALKYPANVAVDPVERFIFWSSEVAGSLYRADLDGVGVKALLETSEKITAVSLDVLDKRLFWIQYNREGSNSLICSCDYDGGSVHISKHPTQHNLFAMSLFGDRIFYSTWKMKTIWIANKHTGKDMVRINLHSSFVPLGELKVVHPLAQPKAEDDTWEPEQKLCKLRKGNCSSTVCGQDLQSHLCMCAEGYALSRDRKYCEDVNECAFWNHGCTLGCKNTPGSYYCTCPVGFVLLPDGKRCHQLVSCPRNVSECSHDCVLTSEGPLCFCPEGSVLERDGKTCSGCSSPDNGGCSQLCVPLSPVSWECDCFPGYDLQLDEKSCAASGPQPFLLFANSQDIRHMHFDGTDYGTLLSQQMGMVYALDHDPVENKIYFAHTALKWIERANMDGSQRERLIEEGVDVPEGLAVDWIGRRFYWTDRGKSLIGRSDLNGKRSKIITKENISQPRGIAVHPMAKRLFWTDTGINPRIESSSLQGLGRLVIASSDLIWPSGITIDFLTDKLYWCDAKQSVIEMANLDGSKRRRLTQNDVGHPFAVAVFEDYVWFSDWAMPSVMRVNKRTGKDRVRLQGSMLKPSSLVVVHPLAKPGADPCLYQNGGCEHICKKRLGTAWCSCREGFMKASDGKTCLALDGHQLLAGGEVDLKNQVTPLDILSKTRVSEDNITESQHMLVAEIMVSDQDDCAPVGCSMYARCISEGEDATCQCLKGFAGDGKLCSDIDECEMGVPVCPPASSKCINTEGGYVCRCSEGYQGDGIHCLDIDECQLGEHSCGENASCTNTEGGYTCMCAGRLSEPGLICPDSTPPPHLREDDHHYSVRNSDSECPLSHDGYCLHDGVCMYIEALDKYACNCVVGYIGERCQYRDLKWWELRHAGHGQQQKVIVVAVCVVVLVMLLLLSLWGAHYYRTQKLLSKNPKNPYEESSRDVRSRRPADTEDGMSSCPQPWFVVIKEHQDLKNGGQPVAGEDGQAADGSMQPTSWRQEPQLCGMGTEQGCWIPVSSDKGSCPQVMERSFHMPSYGTQTLEGGVEKPHSLLSANPLWQQRALDPPHQMELTQ",wound healing in mouse cornea and corneal stroma (reduction in diameter and intensity of fluorescein fluorescence),a lower level of healing
